Data published in paper PMC3752671 (Journal of structural biology, 2013).
Values belong to the binder of their own block, whether it stands above or below them.

Assays:
[1] = biological target: T1, recombinant porcine amelogenin rP172 (porcine), P45561; experiment: cryo-EM structure; details: remark: other sources report otherwise
T1 chain: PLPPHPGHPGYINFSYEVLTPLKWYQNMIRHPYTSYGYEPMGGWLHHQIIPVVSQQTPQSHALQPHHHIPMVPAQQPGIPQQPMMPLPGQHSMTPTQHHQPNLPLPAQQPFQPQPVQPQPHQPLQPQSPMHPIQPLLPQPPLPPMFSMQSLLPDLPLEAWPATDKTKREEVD

[2] = biological target: the molecule itself; experiment: cryo-EM structure

- stoichiometry N [1]: 12
B1: recombinant porcine amelogenin rP172, P45561 18-189 (natural protein)
chain: T1 chain

B2: full-length native porcine amelogenin P173 (natural protein, UniProt P45561 17-189, looked up)
chain: MPLPPHPGHPGYINFSYEVLTPLKWYQNMIRHPYTSYGYEPMGGWLHHQIIPVVSQQTPQSHALQPHHHIPMVPAQQPGIPQQPMMPLPGQHSMTPTQHHQPNLPLPAQQPFQPQPVQPQPHQPLQPQSPMHPIQPLLPQPPLPPMFSMQSLLPDLPLEAWPATDKTKREEVD
modifications: phosphoserine at 16 (S-16); degree of phosphorylation ~85% by mass spectrometry
- stoichiometry N [2]: 12
